Results: patent US10251952B2, “Humanized anti-tau(pS422) antibody brain shuttles and use thereof” (Hoffmann-La Roche Inc., priority 2014, dated 2019)
“And” between values parts separate entries of the source, which are not always exact repeats. Equal entries are not always repeated.

B1: VH14 with VL17: anti-human tau(pS422) antibody; VH SEQ ID NO: 50, VL SEQ ID NO: 37 (antibody, V domains shown)
VH: QQLVESGGGLVQPGGSLRLSCAASGFSLSSNAINWVRQAPGKGLEWVGYIAVSGNTYYASWAKGRFTISRDNSKNTLYLQMNSLRAEDTAVYYCGKSNIWGPGTLVTVSS
VL: DIQMTQSPSSLSASVGDRVTITCRSSQSVRTNKLAWFQQKPGQPPKRLIYSASTLDFGVPSRFSGSGSGTEFTLTISSLQPEDFATYYCLGYFDCSIADCVAFGGGTKVEIK
modifications: humanized sequence
B2: VH14 with VL19: anti-human tau(pS422) antibody; VH SEQ ID NO: 50, VL SEQ ID NO: 38 (antibody, V domains shown)
VH: QQLVESGGGLVQPGGSLRLSCAASGFSLSSNAINWVRQAPGKGLEWVGYIAVSGNTYYASWAKGRFTISRDNSKNTLYLQMNSLRAEDTAVYYCGKSNIWGPGTLVTVSS
VL: AQVMTQSPSSLSASVGDRVTITCRSSQSVRTNKLAWFQQKPGQPPKRLIYSASTLDFGVPSRFSGSGSGTEFTLTISSLQPEDFATYYCLGYFDCSIADCVAFGGGTKVEIK
modifications: humanized sequence
B3: VH14 with VL28: anti-human tau(pS422) antibody; VH SEQ ID NO: 50, VL SEQ ID NO: 39 (antibody, V domains shown)
VH: QQLVESGGGLVQPGGSLRLSCAASGFSLSSNAINWVRQAPGKGLEWVGYIAVSGNTYYASWAKGRFTISRDNSKNTLYLQMNSLRAEDTAVYYCGKSNIWGPGTLVTVSS
VL: AIQMTQSPSTLSASVGDRVTITCRSSQSVRTNRLAWFQQKPGKAPKRLIYSASTLDFGVPSRFSGSGSGTEFTLTISSLQPDDFATYYCLGYFDPSADPVAFGGGTKVEIK
modifications: humanized sequence
B4: VH14 with VL22: anti-human tau(pS422) antibody; VH SEQ ID NO: 50, VL SEQ ID NO: 17 (antibody, V domains shown)
VH: QQLVESGGGLVQPGGSLRLSCAASGFSLSSNAINWVRQAPGKGLEWVGYIAVSGNTYYASWAKGRFTISRDNSKNTLYLQMNSLRAEDTAVYYCGKSNIWGPGTLVTVSS
VL: AQVMTQSPSSLSASVGDRVTITCRSSQSVRTNRLAWFQQKPGQPPKRLIYSASTLDYGVPSRFSGSGSGTEFTLTISSLQPEDFATYYCLGYFDSSADIVAFGGGTKVEIK
modifications: humanized sequence
B5: VH14 with VL39: anti-human tau(pS422) antibody; VH SEQ ID NO: 50, VL SEQ ID NO: 42 (antibody, V domains shown)
VH: QQLVESGGGLVQPGGSLRLSCAASGFSLSSNAINWVRQAPGKGLEWVGYIAVSGNTYYASWAKGRFTISRDNSKNTLYLQMNSLRAEDTAVYYCGKSNIWGPGTLVTVSS
VL: DIQMTQSPSSLSASVGDRVTITCRSSQSVRTNRLAWFQQKPGQPPKRLIYSASTLDFGVPSRFSGSGSGTEFTLTISSLQPEDFATYYCLGYFDPSIADPVAFGGGTKVEIK
modifications: humanized sequence
B6: VH14 with VL33: anti-human tau(pS422) antibody; VH SEQ ID NO: 50, VL SEQ ID NO: 40 (antibody, V domains shown)
VH: QQLVESGGGLVQPGGSLRLSCAASGFSLSSNAINWVRQAPGKGLEWVGYIAVSGNTYYASWAKGRFTISRDNSKNTLYLQMNSLRAEDTAVYYCGKSNIWGPGTLVTVSS
VL: AIQMTQSPSSLSASVGDRVTITCRSSQSVRTNRLAWFQQKPGQPPKRLIYSASTLDFGVPSRFSGSGSGTEFTLTISSLQPEDFATYYCLGYFDSSIADIVAFGGGTKVEIK
modifications: humanized sequence
B7: VH14 with VL35: anti-human tau(pS422) antibody; VH SEQ ID NO: 50, VL SEQ ID NO: 41 (antibody, V domains shown)
VH: QQLVESGGGLVQPGGSLRLSCAASGFSLSSNAINWVRQAPGKGLEWVGYIAVSGNTYYASWAKGRFTISRDNSKNTLYLQMNSLRAEDTAVYYCGKSNIWGPGTLVTVSS
VL: AIQMTQSTSSLSASVGDRVTITCRSSQSVRTNRLAWFQQKPGQPPKRLIYSASTLDFGVPSRFSGSGSGTEFTLTISSLQPEDFATYYCLGYFDSSIADIVAFGGGTKVEIK
modifications: humanized sequence
B8: VH14 with VL40: anti-human tau(pS422) antibody; VH SEQ ID NO: 50, VL SEQ ID NO: 43 (antibody, V domains shown)
VH: QQLVESGGGLVQPGGSLRLSCAASGFSLSSNAINWVRQAPGKGLEWVGYIAVSGNTYYASWAKGRFTISRDNSKNTLYLQMNSLRAEDTAVYYCGKSNIWGPGTLVTVSS
VL: DIQMTQSPSSLSASVGDRVTITCRSSQSVRTNRLAWFQQKPGQPPKRLIYSASTLDFGVPSRFSGSGSGTEFTLTISSLQPEDFATYYCLGYFDPSADPVAFGGGTKVEIK
modifications: humanized sequence
B9: VH14 with VL09: anti-human tau(pS422) antibody; VH SEQ ID NO: 50, VL SEQ ID NO: 33 (antibody, V domains shown)
VH: QQLVESGGGLVQPGGSLRLSCAASGFSLSSNAINWVRQAPGKGLEWVGYIAVSGNTYYASWAKGRFTISRDNSKNTLYLQMNSLRAEDTAVYYCGKSNIWGPGTLVTVSS
VL: DIQMTQSPSTLSASVGDRVTITCRASQSVRTNKLAWYQQKPGKAPKRLIYSASTLESGVPSRFSGSGSGTEFTLTISSLQPDDFATYYCLGYFDCSIADCVAFGGGTKVEIK
modifications: humanized sequence
B10: VH14 with VL00: anti-human tau(pS422) antibody; VH SEQ ID NO: 50, VL SEQ ID NO: 07 (antibody, listed as Oryctolagus cuniculus, V domains shown)
VH: QQLVESGGGLVQPGGSLRLSCAASGFSLSSNAINWVRQAPGKGLEWVGYIAVSGNTYYASWAKGRFTISRDNSKNTLYLQMNSLRAEDTAVYYCGKSNIWGPGTLVTVSS
VL: AQVLTQTTSPVSAAVGSTVTISCQSSQSVRTNKLAWFQQKPGQPPKRLIYSASTLDFGVPSRFSASGSGTQFTLTISDVQCDDAATYYCLGYFDCSIADCVAFGGGTEVVVK
modifications: humanized sequence
B11: VH14 with VL01: anti-human tau(pS422) antibody; VH SEQ ID NO: 50, VL SEQ ID NO: 32 (antibody, V domains shown)
VH: QQLVESGGGLVQPGGSLRLSCAASGFSLSSNAINWVRQAPGKGLEWVGYIAVSGNTYYASWAKGRFTISRDNSKNTLYLQMNSLRAEDTAVYYCGKSNIWGPGTLVTVSS
VL: DIQMTQSTSTLSASVGDRVTITCQSSQSVRTNKLAWFQQKPGKAPKRLIYSASTLDFGVPSRFSGSGSGTEFTLTISSLQPDDFATYYCLGYFDCSIADCVAFGGGTKVEIK
modifications: humanized sequence
B12: VH14 with VL21: anti-human tau(pS422) antibody; VH SEQ ID NO: 50, VL SEQ ID NO: 16 (antibody, V domains shown)
VH: QQLVESGGGLVQPGGSLRLSCAASGFSLSSNAINWVRQAPGKGLEWVGYIAVSGNTYYASWAKGRFTISRDNSKNTLYLQMNSLRAEDTAVYYCGKSNIWGPGTLVTVSS
VL: AQVMTQSPSSLSASVGDRVTITCRSSQSVRTNKLAWFQQKPGQPPKRLIYSASTLDFGVPSRFSGSGSGTEFTLTISSLQPEDFATYYCLGYFDSSADIVAFGGGTKVEIK
modifications: humanized sequence

target: human tau(pS422) (Homo sapiens, UniProt P10636, S739X); assay: BIAcore kinetic screening and kinetic rates of humanized VH/VL combinations; format: binding; conditions: 25 °C; VH14 or VH20 with VL variants
Experimental: In the following Table characteristics of the different humanized variants of the rabbit light chain variable domain in combination with the humanized heavy chain variable domains VH14 and VH20, respectively, are shown. Binding partner was human tau(pS422).
Kinetic screening was performed according to Schraeml et al. (Schraeml, M. and M. Biehl, Methods Mol. Biol. 901 (2012) 171-181) on a BIAcore 4000 instrument, mounted with a BIAcore CM5 sensor. The BIAcore 4000 instrument was under the control of the software version V1.1. A BIAcore CM5 series S chip was mounted into the instrument and was hydrodynamically addressed and preconditioned according to the manufacturer's instructions. The instrument buffer was HBS-EP buffer (10 mM HEPES (pH 7.4), 150 mM NaCl, 1 mM EDTA, 0.05% (w/v) P20). An antibody capture system was prepared on the sensor surface. A polyclonal goat anti-human antibody with human IgG-Fc specificity (Jackson Lab.) was immobilized at 30 μg/ml in 10 mM sodium acetate buffer (pH 5) to spots 1, 2, 4 and 5 in the instrument's flow cells 1, 2, 3 and 4 at 10,000 RU using NHS/EDC chemistry. In each flow cell the antibodies were captured on spot 1 and spot 5. Spot 2 and spot 4 were used as reference spots. The sensor was deactivated with a 1 M ethanolamine solution. Humanized antibody derivatives were applied at concentrations between 44 nM and 70 nM in instrument buffer supplemented with 1 mg/ml CMD (carboxymethyldextrane). The antibodies were injected at a flow rate of 30 μl/min for 2 minutes. The capture level (CL) of the surface-presented antibodies was measured in rel. response units (RU). The analytes in solution, phosphorylated human tau protein, non-phosphorylated human tau protein and the phosphorylated human tau mutant protein T422S were injected at 300 nM for 3 minutes at a flow rate of 30 μl/minute. The dissociation was monitored for 5 minutes. The capture system was regenerated by a 1 minute injection of 10 mM glycine buffer, pH 1.7 at 30 μL/minute over all flow cells. Two report points, the recorded signal shortly before the end of the analyte injection, denoted as binding late (BL) and the recorded signal shortly before the end of the dissociation time, stability late (SL), were used to characterize the kinetic screening performance. Furthermore, the dissociation rate constant kd (1/s) was calculated according to a Langmuir model and the antibody/antigen complex half-life was calculated in minutes according to the formula ln(2)/(60*kd). The molar ratio (MR) was calculated according to the formula MR=(Binding Late (RU))/(Capture level (RU))*(MW(antibody)/(MW(antigen)). In case the sensor was configured with a suitable amount of antibody ligand capture level, each antibody should be able to functionally bind at least to one analyte in solution, which is represented by a molar ratio of MR=1.0. Then, the molar ratio is also an indicator for the valence mode of analyte binding. The maximum valence can be MR=2 for an antibody binding two analytes, one with each Fab valence.
In another embodiment, kinetic rates were determined at 25° C. and 37° C. using the same experimental setup, but using multiple concentration series of each analyte in solution at 0 nM (buffer), 1.2 nM, 3.7 nM, 11.1 nM, 33.3 nM, 100 nM and 300 nM. From the concentration-dependent binding behavior the kinetic data was calculated using the BIAcore evaluation software according to the manufacturer's instructions and a Langmuir 1.1 model with RMAX global.

In the case of B1, the “kd” value is reported as 0.00303 s⁻¹ and 0.00239 s⁻¹.

With B1 the “t/2 diss” value was 4 min and 5 min.

First: B2
Second: B3
The “kd” value of the first is 1.9-fold lower: 0.00198 s⁻¹ for the first, 0.00384 s⁻¹ for the second.

Going from B4 to B5, the “kd” value rises from 0.0033 s⁻¹ to 0.00522 s⁻¹ (1.6-fold).

B6 and B7 are within 1.5-fold of each other in “kd” value: 0.0102 s⁻¹ for the first, 0.011 s⁻¹ for the second.

Going from B8 to B10, the “kd” value falls from 0.00301 s⁻¹ to 0.00104 s⁻¹ (2.9-fold).

B11 and B12 are within 1.5-fold of each other in “kd” value: 0.00382 s⁻¹ for the first, 0.00293 s⁻¹ for the second.

First: B2
Second: B3
The “t/2 diss” value of the first is 2-fold higher: 6 min for the first, 3 min for the second.

Compared with B4, B5 is 2-fold lower in “t/2 diss” value: 4 min for the first, 2 min for the second.

B6 and B7 are the same in “t/2 diss” value: 1 min for the first, 1 min for the second.

B8 and B9 are within 1.5-fold of each other in “t/2 diss” value: 4 min for the first, 5 min for the second.

Compared with B10, B11 is 3.7-fold lower in “t/2 diss” value: 11 min for the first, 3 min for the second.

In the case of B12, the “t/2 diss” value is reported as 4 min.

B9 was tested, and the “kd [1/s]” value was 2.35E−03. 1/s.

same assay, conditions: 25 °C; VL17 or VL19 with VH variants

Compared with B1, B2 is 1.5-fold lower in “kd” value: 0.003 s⁻¹ for the first, 0.002 s⁻¹ for the second.

First: B1
Second: B2
The “t/2 diss” value of the first is 1.5-fold lower: 4 min for the first, 6 min for the second.
